The text below walks through data of patent publication US20230250438.

In this series the target is Transferrin receptor (TfR) (Mus musculus) (UniProt Q62351). The series can be described thus: pulldown. As to conditions: B = Bn-dU, unit not given.
Chain of Transferrin receptor (TfR) (Mus musculus) (Q62351 89-763): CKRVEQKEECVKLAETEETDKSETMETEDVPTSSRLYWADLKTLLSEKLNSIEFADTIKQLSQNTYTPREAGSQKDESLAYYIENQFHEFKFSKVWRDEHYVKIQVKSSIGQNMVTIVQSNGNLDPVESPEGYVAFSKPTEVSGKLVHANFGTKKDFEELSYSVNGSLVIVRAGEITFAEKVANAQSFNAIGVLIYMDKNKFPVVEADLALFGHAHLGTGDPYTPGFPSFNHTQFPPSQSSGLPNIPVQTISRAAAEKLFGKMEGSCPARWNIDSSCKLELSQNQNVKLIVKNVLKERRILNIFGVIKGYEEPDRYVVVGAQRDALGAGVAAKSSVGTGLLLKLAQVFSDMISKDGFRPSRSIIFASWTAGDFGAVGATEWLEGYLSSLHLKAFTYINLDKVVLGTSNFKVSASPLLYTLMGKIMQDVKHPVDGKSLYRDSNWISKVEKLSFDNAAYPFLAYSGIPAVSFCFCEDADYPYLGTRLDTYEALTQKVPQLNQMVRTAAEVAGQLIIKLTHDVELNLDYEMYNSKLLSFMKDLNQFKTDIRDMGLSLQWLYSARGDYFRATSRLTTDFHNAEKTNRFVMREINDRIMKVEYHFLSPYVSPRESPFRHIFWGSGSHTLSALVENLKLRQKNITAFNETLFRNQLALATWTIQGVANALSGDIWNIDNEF

As to “GAATTCAAAAGTGTCGGTGATTTGCCTCGTCGCTCCAATGT [CMe 9]”, where the note is “2'-OMe at C36 [Bn-dU at 4,5,12,14,18,21,22,23,27,30,34,39,41, 2'-OMe at C36], SB18, 5 mM MgCl2, 37 C”, the Kd worked out at 7.66. For “GAATUCAAAAGTGTCGGTGATTTGCCTCGTCGCTCCAATGT [UMe 2]”, the Kd (2'-OMe-U at 5 [2'-OMe-U: 5, Bn-dU: 4,12,14,18,21,22,23,27,30,34,39,41], Table 10 ratio 0.10) was 56.4. On to “GAATTCAAAAGTGTCGGTGATTTGCCTCGTCGCTCCAATGT [CMe 8]”, for which the Kd (2'-OMe at C35 [Bn-dU at 4,5,12,14,18,21,22,23,27,30,34,39,41, 2'-OMe at C35], SB18, 5 mM MgCl2, 37 C) came out at 8.46. The sequence “GAATTCAAAAGTGTCGGTGATTTGCCTCGTCGCUCCAATGT [UMe 11]” displayed a Kd (2'-OMe-U at 34 [Bn-dU: 4,5,12,14,18,21,22,23,27,30,39,41, 2'-OMe-U: 34], SB18, 5 mM MgCl2, 37 C) of 17.8. On to “GAATTCAAAAGTGTCGGTGATTTGCCUCGTCGCTCCAATGT [UMe 9]”, for which the Kd (2'-OMe-U at 27 [Bn-dU: 4,5,12,14,18,21,22,23,30,34,39,41, 2'-OMe-U: 27], SB18, 5 mM MgCl2, 37 C) turned out to be 18.3. Take “GAATTCAAAAGTGTCGGTGATTTGCCTCGTCGCTCCAATGT [GMe 8]”: the Kd (2'-OMe at G29 [Bn-dU: 4,5,12,14,18,21,22,23,27,30,34,39,41, 2'-OMe: 29], SB18, 5 mM MgCl2, 37 C) stood at 5.39. Consider “GAATTCAAAAGTGTCGGTGATTTGCCTCGTCGCTCCAAUGT [UMe 12]”, for which, for the setting “2'-OMe-U at 39 [Bn-dU: 4,5,12,14,18,21,22,23,27,30,34,41, 2'-OMe-U: 39], SB18, 5 mM MgCl2, 37 C”, the Kd stood at 28.

In turn, “GAATTCAAAAGTGTCGGTGATTTGCCTCGUCGCTCCAATGT [UMe 10]” came in with a Kd (2'-OMe-U at 30 [Bn-dU: 4,5,12,14,18,21,22,23,27,34,39,41, 2'-OMe-U: 30], SB18, 5 mM MgCl2, 37 C) of 25.2. On to “GAATTCAAAAGTGTCGGTGATTTGCCTCGTCGCTCCAATGT [CMe 3]”, for which the Kd (2'-OMe at C25 [Bn-dU: 4,5,12,14,18,21,22,23,27,30,34,39,41, 2'-OMe: 25], SB18, 5 mM MgCl2, 37 C) turned out to be 11.1. “GAATTCAAAAGTGTCGGTGATTTGCCTCGTCGCTCCAATGT [CMe 4]” yielded a Kd (2'-OMe at C26 [Bn-dU: 4,5,12,14,18,21,22,23,27,30,34,39,41, 2'-OMe: 26], SB18, 5 mM MgCl2, 37 C) of 6.94. Take “GAAUTCAAAAGTGTCGGTGATTTGCCTCGTCGCTCCAATGT [UMe 1]”: for the setting “2'-OMe-U at 4 [2'-OMe-U: 4, Bn-dU: 5,12,14,18,21,22,23,27,30,34,39,41], Table 10 ratio 0.13”, the Kd stood at 42.6. Turning to “GAATTCAAAAGTGTCGGTGATUTGCCTCGTCGCTCCAATGT [UMe 7]”, the Kd (2'-OMe-U at 22 [Bn-dU: 4,5,12,14,18,21,23,27,30,34,39,41, 2'-OMe-U: 22], Table 11 ratio 2.51 (improved)) was determined as 1.84. For “GAATTCAAAAGTGUCGGTGATTTGCCTCGTCGCTCCAATGT [UMe 4]”, under “2'-OMe-U at 14 [Bn-dU: 4,5,12,18,21,22,23,27,30,34,39,41, 2'-OMe-U: 14], Table 10 ratio 0.17”, the Kd came to 32.4. With “GAATTCAAAAGTGTCGGTGATTTGCCTCGTCGCTCCAATGU [UMe 13]”, the Kd (2'-OMe-U at 41 [Bn-dU: 4,5,12,14,18,21,22,23,27,30,34,39, 2'-OMe-U: 41], SB18, 5 mM MgCl2, 37 C) is 22.8.

“GAATTCAAAAGTGTCGGTGATTTGCCTCGTCGCTCCAATGT [GMe 4]”: under “2'-OMe at G16 [Bn-dU: 4,5,12,14,18,21,22,23,27,30,34,39,41, 2'-OMe: 16], SB18, 5 mM MgCl2, 37 C”, the Kd was 6.33. Regarding “GAATTCAAAAGTGTCGGTGATTTGCCTCGTCGCTCCAATGT [CMe 2]”, the Kd (2'-OMe at C15 [Bn-dU: 4,5,12,14,18,21,22,23,27,30,34,39,41, 2'-OMe: 15], SB18, 5 mM MgCl2, 37 C) came to 11.4. Take “GAATTCAAAAGTGTCGGTGATTTGCCTCGTCGCTCCAATGT [CMe 7]”: the Kd (2'-OMe at C33 [Bn-dU at 4,5,12,14,18,21,22,23,27,30,34,39,41, 2'-OMe at C33], Table 11 ratio 3.36 (improved)) came to 0.363. With “GAATTCAAAAGTGTCGGTGATTTGCCTCGTCGCTCCAATGT [GMe 2]”, where the note is “2'-OMe at G11 [Bn-dU: 4,5,12,14,18,21,22,23,27,30,34,39,41, 2'-OMe-G: 11], SB18, 5 mM MgCl2, 37 C”, the Kd turned out to be 9.67.
